Reference: article PMC8042168, “The cell surface hyaluronidase TMEM2 regulates cell adhesion and migration via degradation of hyaluronan at focal adhesion sites” (The Journal of Biological Chemistry, 2021)

Target: T1, recombinant human α5β1 ECD heterodimer (human, UniProt P08648 42-995; P05556 21-728)
T1 construct: integrin α5, human, extracellular domain; integrin β1, human, extracellular domain; also called recombinant heterodimer of integrin ECD (α5β1); source: bought: R&D Systems (3230-A5-050)
T1 sequence (P08648 42-995, chain 1 of 2): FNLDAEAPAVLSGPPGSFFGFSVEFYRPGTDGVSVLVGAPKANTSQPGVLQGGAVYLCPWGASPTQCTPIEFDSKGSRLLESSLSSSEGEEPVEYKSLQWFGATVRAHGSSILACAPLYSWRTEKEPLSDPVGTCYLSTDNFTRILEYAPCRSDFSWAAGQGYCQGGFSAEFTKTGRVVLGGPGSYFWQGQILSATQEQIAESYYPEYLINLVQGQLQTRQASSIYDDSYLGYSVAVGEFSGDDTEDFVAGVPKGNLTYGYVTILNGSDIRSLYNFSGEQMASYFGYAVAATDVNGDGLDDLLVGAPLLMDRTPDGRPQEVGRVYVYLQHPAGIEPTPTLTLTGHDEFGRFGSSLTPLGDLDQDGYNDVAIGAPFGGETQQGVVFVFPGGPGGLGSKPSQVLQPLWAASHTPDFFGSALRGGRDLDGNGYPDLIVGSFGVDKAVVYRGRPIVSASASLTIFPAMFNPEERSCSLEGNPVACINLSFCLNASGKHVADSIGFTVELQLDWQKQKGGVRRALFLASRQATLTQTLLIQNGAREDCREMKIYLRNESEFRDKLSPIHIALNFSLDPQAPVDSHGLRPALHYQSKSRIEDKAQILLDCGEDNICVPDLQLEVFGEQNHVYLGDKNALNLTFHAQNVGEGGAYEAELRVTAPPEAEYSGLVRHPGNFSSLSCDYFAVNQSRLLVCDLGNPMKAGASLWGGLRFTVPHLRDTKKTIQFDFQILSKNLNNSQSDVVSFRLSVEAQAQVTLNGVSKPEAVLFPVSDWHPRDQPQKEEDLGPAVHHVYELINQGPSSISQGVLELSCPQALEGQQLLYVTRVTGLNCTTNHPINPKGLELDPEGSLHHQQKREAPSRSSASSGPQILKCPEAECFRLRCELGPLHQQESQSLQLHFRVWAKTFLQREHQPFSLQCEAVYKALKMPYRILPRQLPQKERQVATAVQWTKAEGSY
T1 sequence (P05556 21-728, chain 2 of 2): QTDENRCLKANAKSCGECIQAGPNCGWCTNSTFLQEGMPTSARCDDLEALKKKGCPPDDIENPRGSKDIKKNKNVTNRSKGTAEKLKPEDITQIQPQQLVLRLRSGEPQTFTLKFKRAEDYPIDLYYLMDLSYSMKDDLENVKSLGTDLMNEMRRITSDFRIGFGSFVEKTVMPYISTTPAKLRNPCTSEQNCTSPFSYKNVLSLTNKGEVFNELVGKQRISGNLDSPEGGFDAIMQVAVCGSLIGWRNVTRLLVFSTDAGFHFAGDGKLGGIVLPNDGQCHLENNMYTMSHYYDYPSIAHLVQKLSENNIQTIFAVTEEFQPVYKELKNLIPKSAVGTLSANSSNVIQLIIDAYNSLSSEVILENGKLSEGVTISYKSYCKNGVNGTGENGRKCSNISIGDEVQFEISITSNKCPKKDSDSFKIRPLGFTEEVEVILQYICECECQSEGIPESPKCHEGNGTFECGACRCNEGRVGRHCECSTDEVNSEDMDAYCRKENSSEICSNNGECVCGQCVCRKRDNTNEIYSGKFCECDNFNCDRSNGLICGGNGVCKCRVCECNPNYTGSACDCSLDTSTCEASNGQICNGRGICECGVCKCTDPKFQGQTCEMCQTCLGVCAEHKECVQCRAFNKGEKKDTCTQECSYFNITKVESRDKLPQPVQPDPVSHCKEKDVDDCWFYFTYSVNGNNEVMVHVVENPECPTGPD
Assay: pull-down; TMEM2–ECD-His6 (about 5 μg/20 μl) held on ProBond nickel chelating resin; 2 μg recombinant integrin ECD heterodimer incubated in HBSS++ overnight at 4 °C; control unbound resin; blots
Settings: both partners purified

binding result: binds
B1: recombinant soluble TMEM2 extracellular domain, 6x His-tagged (domain or fragment, mouse, UniProt Q5FWI3 104-1383, looked up)
chain: SSKYAPDENCPDQNPRLRNWDPGQDSAKHIVIKEGDLFRLTSDATVDSIVIQDGGLLVFGDDKDGSKNITLRTRYILIQDGGALHIGAEKCRYRSKATITLYGKSDERESMPIFGKKFIGVEAGGTLELHGAQRTSWTMLARTLHSSGLPFGSYAFEKDFSRGLNVRVIDQDTARVLENEKFDTHEYHNESRRLQEFLRAQEPGRIVAIAVGDSAVKSLLQGTIQMIQDRLGSKLIQGLGYRQAWALVGVIDGGSSSCNESVRNYENHSTGGKALAQGEFYTLDGQKFSVTAYSEWSQGISLSGFRVDIADGVKLHLLDDVSTWEAGDRIVVASTDYSMYQAEELTLLRCPECSRSQVKVKEIPQYLHVGEIIDGIDMRAEVGLLTRNIVIQGEMEDSCYAENHCQFFDYDTFGGHVMIEKNFTSVHLSYVELKHMGQQHMGRYPVHFHLCGDVDSKGGYSQPASVDGLSVHHSFSRCITVHGTSGLLIKDTIGFDTLGHCFFLEDGVEQRNILYHNLGLLTKPGTLLPTDRNSSMCTVMRDGVFGNYVPVPTTDCMAVSTFWIAHPNNHLINNAAAGSQDAGIWYLFHKEPTGESSGLQLLEKPELTPLGIFYNNRVHSNFKAGLFVDKGVKTTNASASDPREYLCLDNSARFRPHQDADPEKPRVAAIIDRLIAFKNNDNGAWVRGGDIIVQNSAFADNGKGLTFASDGSFPSDEGSSQEVTESLFVGESRNYGFQGGQNKYMGTGGIDQKPRTLPRNRTFPIRGFQIYDGPIHLTKSTFKKYVPTPDRYSSAIGFLMKNSWQTTPRNNVSLVKFGPQVSLNVFFGKPGPWFEDCELDGDKNSIFHDIDGSVTGYKDTYVGRMDNYLIRHPNCVNVTKWNAVICSGTYAQVYVQTWNTPNLSMIITRDEYPSHPMVLRGINQRAISPQYQPVVMLEKGYTIHWNGPAPRTTFLYLVNFNKDDWIRVGLCYPANTSFQVTVGFLQRQNGSLSRIEDYEPARSMEELQKKPSERKFYFDSGTGLLFLYLRAHSHRDGHSYCSSQGCERVKIQAATDSKDISNCMAKAYPQYYKKPSAVKRMPAMLTGLCQGCGTHQMVFTSDPHKSYLPVRFQSPGKAEIQRGDPSIISVNGTDFTFRSAGALLLIVDACSVPFRVKEKRMFLSADVSHMEEYFKASIPPRSIVLLSTRGEIKQLNISDSLAVLGLAKPAHLYSKGSVVFLGFSGNFAPSWTKLFTSPDEQGLGVLEQFLPLQMEEYGCSRTGSVHRRDLDLLQQALKVL
notes: transmembrane protein 2 (TMEM2; CEMIP2), mouse, extracellular domain Ser104–Leu1383; in pSecTag2A with the C-terminal Myc peptide removed; the vector supplies a secretion leader (surmised); also called TMEM2 ECD; TMEM2–ECD; not shown: His6, C-terminal, kept
